B1: Mediator of RNA polymerase II transcription subunit 15 (Saccharomyces cerevisiae), P19659 (parent)
chain: MSAAPVQDKDTLSNAERAKNVNGLLQVLMDINTLNGGSSDTADKIRIHAKNFEAALFAKSSSKKEYMDSMNEKVAVMRNTYNTRKNAVTAAAANNNIKPVEQHHINNLKNSGNSANNMNVNMNLNPQMFLNQQAQARQQVAQQLRNQQQQQQQQQQQQRRQLTPQQQQLVNQMKVAPIPKQLLQRIPNIPPNINTWQQVTALAQQKLLTPQDMEAAKEVYKIHQQLLFKARLQQQQAQAQAQANNNNNGLPQNGNINNNINIPQQQQMQPPNSSANNNPLQQQSSQNTVPNVLNQINQIFSPEEQRSLLQEAIETCKNFEKTQLGSTMTEPVKQSFIRKYINQKALRKIQALRDVKNNNNANNNGSNLQRAQNVPMNIIQQQQQQNTNNNDTIATSATPNAAAFSQQQNASSKLYQMQQQQQAQAQAQAQAQAQAQAQAQAQAAQAAQAQAQAQAQAQAQAQAQAQAQAQAQAQAQAQAQAHAQHQPSQQPQQAQQQPNPLHGLTPTAKDVEVIKQLSLDASKTNLRLTDVTNSLSNEEKEKIKMKLKQGQKLFVQVSNFAPQVYIITKNENFLKEVFQLRIFVKEILEKCAEGIFVVKLDTVDRLIIKYQKYWESMRIQILRRQAILRQQQQMANNNGNPGTTSTGNNNNIATQQNMQQSLQQMQHLQQLKMQQQQQQQQQQQQQQQQQQQQQQQHIYPSSTPGVANYSAMANAPGNNIPYMNHKNTSSMDFLNSMENTPKVPVSAAATPSLNKTINGKVNGRTKSNTIPVTSIPSTNKKLSISNAASQQPTPRSASNTAKSTPNTNPSPLKTQTKNGTPNPNNMKTVQSPMGAQPSYNSAIIENAFRKEELLLKDLEIRKLEISSRFKHRQEIFKDSPMDLFMSTLGDCLGIKDEEMLTSCTIPKAVVDHINGSGKRKPTKAAQRARDQDSIDISIKDNKLVMKSKFNKSNRSYSIALSNVAAIFKGIGGNFKDLSTLVHSSSPSTSSNMDVGNPRKRKASVLEISPQDSIASVLSPDSNIMSDSKKIKVDSPDDPFMTKSGATTSEKQEVTNEAPFLTSGTSSEQFNVWDWNNWTSAT
partner: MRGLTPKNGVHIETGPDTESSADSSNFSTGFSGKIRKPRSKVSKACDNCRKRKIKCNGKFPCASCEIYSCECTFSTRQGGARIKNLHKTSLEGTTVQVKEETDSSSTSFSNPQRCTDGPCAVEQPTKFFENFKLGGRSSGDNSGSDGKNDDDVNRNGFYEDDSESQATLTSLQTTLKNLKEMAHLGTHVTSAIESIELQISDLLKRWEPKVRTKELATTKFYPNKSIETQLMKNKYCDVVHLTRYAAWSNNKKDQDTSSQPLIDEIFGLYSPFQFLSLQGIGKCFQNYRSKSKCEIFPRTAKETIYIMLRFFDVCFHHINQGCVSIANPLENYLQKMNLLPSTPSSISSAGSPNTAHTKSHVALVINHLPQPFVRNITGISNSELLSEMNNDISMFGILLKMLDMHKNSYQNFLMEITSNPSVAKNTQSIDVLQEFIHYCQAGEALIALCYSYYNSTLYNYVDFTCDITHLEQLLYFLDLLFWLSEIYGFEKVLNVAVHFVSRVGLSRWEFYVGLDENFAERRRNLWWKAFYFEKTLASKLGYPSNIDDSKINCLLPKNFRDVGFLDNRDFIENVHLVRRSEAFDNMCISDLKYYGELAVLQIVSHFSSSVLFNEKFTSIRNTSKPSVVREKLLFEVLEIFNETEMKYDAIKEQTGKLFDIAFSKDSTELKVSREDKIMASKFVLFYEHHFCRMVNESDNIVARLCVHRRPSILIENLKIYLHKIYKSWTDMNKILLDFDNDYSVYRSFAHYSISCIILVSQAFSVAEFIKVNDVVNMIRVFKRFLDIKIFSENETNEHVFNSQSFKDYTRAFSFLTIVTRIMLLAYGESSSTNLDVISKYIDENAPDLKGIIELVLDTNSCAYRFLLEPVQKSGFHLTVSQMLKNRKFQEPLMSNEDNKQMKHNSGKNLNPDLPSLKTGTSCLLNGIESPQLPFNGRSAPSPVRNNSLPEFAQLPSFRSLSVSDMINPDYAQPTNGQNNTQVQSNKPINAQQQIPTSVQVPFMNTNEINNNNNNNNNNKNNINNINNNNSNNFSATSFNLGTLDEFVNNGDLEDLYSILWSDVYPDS

Variants of: B1
Details: with pdr1_yeast PDR1, P12383

Effect of a mutation on the interaction, disrupting interaction:
V76D
R78L
M77E
K63Q
V27D
S69D
